Experiments:
[1] = system: CHO-S cells; assay: PI-PLC treatment of expressing cells, Western blot of media and cells; format: cell-based, Chinese Hamster; settings: cells incubated with PI-PLC for 2 hours
Description: In this example, following transient expression, as described in Example 2 above, the media and cells were harvested separately and analyzed for PH20 expression and solublility by Western blot analysis. Solubility of the C-terminus truncation mutants was determined by examining whether the expressed protein was present in the growth media or in the cells. […] Cells expressing these mutants were treated with phosphoinositol-phospholipase C (PI-PLC), which cleaves the GPI-anchor allowing the release of soluble protein into the media, and the presence of PH20 in the resulting media and cells was determined by Western blot analysis.
Following expression of rHuPH20 in CHO—S cells for 72 hours, as described in Example 2A above, the media and cells were harvested separately. The cells were washed with serum-free media followed by the addition of 2 mL serum-free media per well. PI-PLC (0.5 units/well) was added to each well and the cells were incubated in the PI-PLC for 2 hours. The resultant media and cells were analyzed by Western blot analysis as described above.
Two plates each of rHuPH20 expressing CHO—S cells, one for treatment with PI-PLC and one without treatment with PI-PLC, were prepared for each C-terminus mutant as described in Example 2B above. Following expression for 48 hours, for cells untreated with PI-PLC, the media and cells were harvested separately. The harvested media was spun down, concentrated to a volume of 10 mL, and buffer exchanged into PBS using an Amicon 30 kD MWCO concentrator. The cells were rinsed with cold PBS and scraped and resuspended in 1.2 mL PBS with protease inhibitor Set III (Cat No. 539134, Calbiochem). The resuspended cells were briefly sonicated to prepare whole-cell extract. For PI-PLC treatment of cells, following expression for 48 hours, the untreated media was harvested, as described above. The cells were rinsed once with fresh CD DG44 medium with Glutamax-1, and the media was replaced with 12 mL fresh detergent free CD DG44 medium supplemented with Glutamax-1 with 3.0 units PI-PLC per dish, and the cells were incubated for 2 hours at 37° C. with 5% CO2. After 2 hours, the PI-PLC media and cells were harvested separately, as described above. The resultant untreated media and cells, and PI-PLC treated media and cells, were analyzed by Western blot analysis as described above.

[2] = Microtiter hyaluronidase activity assay with biotinylated-hyaluronic acid; format: biochemical; settings: 72 hour post transfection supernatant

Molecule	Expressed in Media Following Addition of PI-PLC [1]	pH 5.5 Activity ([2]; Table 6)	pH 7.4 Activity ([2]; Table 6)	pH 5.5 Activity ([2]; Table 6A)	pH 7.4 Activity ([2]; Table 6A)
SPAM1-IISS: C-terminally truncated human PH20, precursor 505 aa (SEQ ID NO:4), mature 470 aa (SEQ ID NO:56) (protein, listed as Homo sapiens, HuPH20 precursor 1-505; mature HuPH20 36-505) chain 1: MGVLKFKHIFFRSFVKSSGVSQIVFTFLLIPCCLTLNFRAPPVIPNVPFLWAWNAPSEFCLGKFDEPLDMSLFSFIGSPRINATGQGVTIFYVDRLGYYPYIDSITGVTVNGGIPQKISLQDHLDKAKKDITFYMPVDNLGMAVIDWEEWRPTWARNWKPKDVYKNRSIELVQQQNVQLSLTEATEKAKQEFEKAGKDFLVETIKLGKLLRPNHLWGYYLFPDCYNHHYKKPGYNGSCFNVEIKRNDDLSWLWNESTALYPSIYLNTQQSPVAATLYVRNRVREAIRVSKIPDAKSPLPVFAYTRIVFTDQVLKFLSQDELVYTFGETVALGASGIVIWGTLSIMRSMKSCLLLDNYMETILNPYIINVTLAAKMCSQVLCQEQGVCIRKNWNSSDYLHLNPDNFAIQLEKGGKFTVRGKPTLEDLEQFSEKFYCSCYSTLSCKEKADVKDTDAVDVCIADGVCIDAFLKPPMETEEPQIFYNASPSTLSATMFIVSILFLIISS chain 2: LNFRAPPVIPNVPFLWAWNAPSEFCLGKFDEPLDMSLFSFIGSPRINATGQGVTIFYVDRLGYYPYIDSITGVTVNGGIPQKISLQDHLDKAKKDITFYMPVDNLGMAVIDWEEWRPTWARNWKPKDVYKNRSIELVQQQNVQLSLTEATEKAKQEFEKAGKDFLVETIKLGKLLRPNHLWGYYLFPDCYNHHYKKPGYNGSCFNVEIKRNDDLSWLWNESTALYPSIYLNTQQSPVAATLYVRNRVREAIRVSKIPDAKSPLPVFAYTRIVFTDQVLKFLSQDELVYTFGETVALGASGIVIWGTLSIMRSMKSCLLLDNYMETILNPYIINVTLAAKMCSQVLCQEQGVCIRKNWNSSDYLHLNPDNFAIQLEKGGKFTVRGKPTLEDLEQFSEKFYCSCYSTLSCKEKADVKDTDAVDVCIADGVCIDAFLKPPMETEEPQIFYNASPSTLSATMFIVSILFLIISS	YES	0.837 Units/ml	1.458 Units/ml	0.932 Units/ml	1.863 Units/ml
SPAM1-FLII: C-terminally truncated human PH20, precursor 503 aa (SEQ ID NO:5), mature 468 aa (SEQ ID NO:57) (protein, listed as Homo sapiens, HuPH20 precursor 1-503; mature HuPH20 36-503) chain 1: MGVLKFKHIFFRSFVKSSGVSQIVFTFLLIPCCLTLNFRAPPVIPNVPFLWAWNAPSEFCLGKFDEPLDMSLFSFIGSPRINATGQGVTIFYVDRLGYYPYIDSITGVTVNGGIPQKISLQDHLDKAKKDITFYMPVDNLGMAVIDWEEWRPTWARNWKPKDVYKNRSIELVQQQNVQLSLTEATEKAKQEFEKAGKDFLVETIKLGKLLRPNHLWGYYLFPDCYNHHYKKPGYNGSCFNVEIKRNDDLSWLWNESTALYPSIYLNTQQSPVAATLYVRNRVREAIRVSKIPDAKSPLPVFAYTRIVFTDQVLKFLSQDELVYTFGETVALGASGIVIWGTLSIMRSMKSCLLLDNYMETILNPYIINVTLAAKMCSQVLCQEQGVCIRKNWNSSDYLHLNPDNFAIQLEKGGKFTVRGKPTLEDLEQFSEKFYCSCYSTLSCKEKADVKDTDAVDVCIADGVCIDAFLKPPMETEEPQIFYNASPSTLSATMFIVSILFLII chain 2: LNFRAPPVIPNVPFLWAWNAPSEFCLGKFDEPLDMSLFSFIGSPRINATGQGVTIFYVDRLGYYPYIDSITGVTVNGGIPQKISLQDHLDKAKKDITFYMPVDNLGMAVIDWEEWRPTWARNWKPKDVYKNRSIELVQQQNVQLSLTEATEKAKQEFEKAGKDFLVETIKLGKLLRPNHLWGYYLFPDCYNHHYKKPGYNGSCFNVEIKRNDDLSWLWNESTALYPSIYLNTQQSPVAATLYVRNRVREAIRVSKIPDAKSPLPVFAYTRIVFTDQVLKFLSQDELVYTFGETVALGASGIVIWGTLSIMRSMKSCLLLDNYMETILNPYIINVTLAAKMCSQVLCQEQGVCIRKNWNSSDYLHLNPDNFAIQLEKGGKFTVRGKPTLEDLEQFSEKFYCSCYSTLSCKEKADVKDTDAVDVCIADGVCIDAFLKPPMETEEPQIFYNASPSTLSATMFIVSILFLII	YES	0.6345 Units/ml	0.9405 Units/ml	0.648 Units/ml	1.094 Units/ml

From US9284543B2, “Neutral active soluble truncated PH20 polypeptides and uses thereof” (Halozyme, Inc., priority 2008, dated 2016)
